Patent US20260347496 (published 2026)
Residue numbers refer to the chain shown, from its start. Each block holds one binder with its values, some of them ahead of it.

Target: CD24(27-56aa)-GST NEOX-4 (human)
Test: ELISA

Sequence of CD24(27-56aa)-GST NEOX-4 (human) (chain, as listed by the source): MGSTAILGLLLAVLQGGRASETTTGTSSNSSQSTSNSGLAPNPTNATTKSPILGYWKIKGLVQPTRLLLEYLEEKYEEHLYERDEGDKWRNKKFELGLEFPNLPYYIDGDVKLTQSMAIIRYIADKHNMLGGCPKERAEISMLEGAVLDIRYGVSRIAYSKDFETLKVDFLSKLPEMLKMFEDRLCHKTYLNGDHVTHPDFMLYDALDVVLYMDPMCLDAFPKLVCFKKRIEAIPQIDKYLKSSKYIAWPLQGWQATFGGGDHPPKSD

B1: huG14-221 (antibody, V domains shown)
VH: EVQLVESGGGLVKPGGSLRLSCAASGLTFSNYWMNWVRQAPGKGLEWVALIRLYSDNYAIHYAESVKGRFTISRDDSKSTVYLQMNSLKTEDTAVYYCTTGTDNWGQGTTVTVSS
VL: DVVMTQSPLSLPVTPGRPASISCKSSQSLLYSNGKTYLNWLLQKPGQSPQRLIYLVSKLDSGVPDRFSGSGSGTDFTLKISRVEAEDLGVYYCIQGTYFPYTFGQGTKLEIK
- EC50: 5.93 ng/mL

B3: huG14-210 (antibody, V domains shown)
VH: B1 VH with N104Y
VL: B1 VL with Q27H, K35R
- EC50: 4.26 ng/mL

B4: huG14-211 (antibody, V domains shown)
VH: B1 VH with M34G, N104Y
VL: B1 VL with Q27H, K35E
- EC50: 3.34 ng/mL

B5: huG14-212 (antibody, V domains shown)
VH: B1 VH with M34G, N104Y
VL: B1 VL with Q27H, I94V
- EC50: 3.19 ng/mL

B6: huG14-215 (antibody, V domains shown)
VH: B1 VH with M34G, N104Y
VL: B1 VL with K35R
- EC50: 3.41 ng/mL

B7: huG14-206 (antibody, V domains shown)
VH: B1 VH with N104Y
VL: B1 VL with Q27H, K35R, I94V
- EC50: 4.92 ng/mL

B9: huG14-218 (antibody, V domains shown)
VH: B1 VH
VL: B1 VL with Q27H, K35E
- EC50: 4.71 ng/mL

B10: huG14-204 (antibody, V domains shown)
VH: B1 VH with N104Y
VL: B1 VL with Q27H, K35E
- EC50: 6.67 ng/mL

B11: huG14-220 (antibody, V domains shown)
VH: B1 VH
VL: B1 VL with Q27H, K35R, I94V
- EC50: 5.17 ng/mL

B13: huG14-214 (antibody, V domains shown)
VH: B1 VH with M34G, N104Y
VL: B1 VL
- EC50: 3.06 ng/mL

B17: huG14-207 (antibody, V domains shown)
VH: B1 VH with N104Y
VL: B1 VL
- EC50: 5.71 ng/mL

Second part, the binder after the results:

- EC50: 7.63 ng/mL
B2: huG14-227 (antibody, V domains shown)
VH: B1 VH with M34G
VL: B1 VL with Q27H, K35R, I94V

- EC50: 10.7 ng/mL
B8: huG14-226 (antibody, V domains shown)
VH: B1 VH with M34G
VL: B1 VL with Q27H, I94V

- EC50: 4.91 ng/mL
B12: huG14-222 (antibody, V domains shown)
VH: B1 VH
VL: B1 VL with K35R

- EC50: 4.82 ng/mL
B14: huG14-223 (antibody, V domains shown)
VH: B1 VH
VL: B1 VL with Q27H

- EC50: 8.25 ng/mL
B15: huG14-231 (antibody, V domains shown)
VH: B1 VH with M34G
VL: B1 VL with Q27H, K35R

- EC50: 8.41 ng/mL
B16: huG14-233 (antibody, V domains shown)
VH: B1 VH with M34G
VL: B1 VL with S10R, Q27H, K35R, Q105I

- EC50: 6.18 ng/mL
B18: huG14-224 (antibody, V domains shown)
VH: B1 VH
VL: B1 VL with Q27H, K35R
